Reference: paper PMC4865918, “Inhibition of PRL-2·CNNM3 Protein Complex Formation Decreases Breast Cancer Proliferation and Tumor Growth*” (The Journal of Biological Chemistry, 2016)

Target: T1, His-PRL-2 (human, UniProt Q12974 1-167)
T1 construct: human PRL-2 (PTP4A2), 19-kDa construct; also called recombinant PRL-2; 19-kDa PRL-2 construct; source: Escherichia coli BL21, purified
T1 sequence (looked up): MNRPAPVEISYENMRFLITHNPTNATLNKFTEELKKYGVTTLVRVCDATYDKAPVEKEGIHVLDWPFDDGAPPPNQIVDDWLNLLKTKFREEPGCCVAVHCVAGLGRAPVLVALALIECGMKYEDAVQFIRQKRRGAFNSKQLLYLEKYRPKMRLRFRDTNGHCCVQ
Assay: pull-down; in vitro; 20 ng GST-CBS on glutathione-Sepharose beads, equimolar His-PRL-2 (~10 ng), 4 °C 1 h; 150 mM NaCl, 20 mM Tris, 1% Triton-X, 5 mM 2-mercaptoethanol; without inhibitor (control)
Details: both partners purified

binding result: binds
B1: GST-CBS (Bateman module of human CNNM3, amino acids 302-452) (domain or fragment, UniProt Q8NE01 302-452, looked up)
chain: SDLSKGVLRCRTVEDVLTPLEDCFMLDASTVLDFGVLASIMQSGHTRIPVYEEERSNIVDMLYLKDLAFVDPEDCTPLSTITRFYNHPLHFVFNDTKLDAVLEEFKRGKSHLAIVQKVNNEGEGDPFYEVLGLVTLEDVIEEIIRSEILDE
notes: human CNNM3, Bateman module, amino acids 302-452; also called GST-2xCBS; CBS tandem domain of CNNM3; source: Escherichia coli BL21, purified
